Assay results as given in paper PMC3079366.
Read-outs that look alike come from different tables or passages of the source.

Measured: localisation_or_trafficking

GluA1: GluA1-4KR (K813, K819, K822, K868 to R) co-transfected with Nedd4-1 in HEK293T
abolishes: ubiquitination at K813 | ubiquitination at K819 | ubiquitination at K822 | ubiquitination at K868
